Assay results published in PMC9719539 (Nature Communications, 2022).
Non-standard residues stand in square brackets, D forms with d.

B1: cRGDfK peptide, cyclo[Arg-Gly-Asp-D-Phe-Lys] (peptide)
peptide: cyclo(RGD[dF]K)
notes: cyclic pentapeptide, a cilengitide analog; f = D-Phe; Unlabelled soluble peptide used as titrator
B2: Biogen-αVβ1.5 Fab (Fab, V domains shown)
VH: EVQLVESGGGVVQPGRSLRLSCAASGFTFKYYGMHWVRQAPGKGLEWVASIWYDGSNKKYADSVKGRFTISRDNSKNTLYLQMNSLRAEDTAVYYCARGGPTRGDGTRVYYYGMDVWGQGTTVTVSS
VL: EIVMTQSPATLSVSPGERATLSCRASQSVSSNLAWYQQKPGQAPRLLIYSASTRATGIPARFSGSGSGTEFTLTISSLQSEDFAVYYCQQYYHHPFTFGGGTKVEIK
notes: heavy chain before CDR3; heavy-chain CDR3 (RGD motif highlighted); heavy chain after CDR3 up to the papain cut (IgG1); light chain; Expressed as IgG1 and cut to Fab with papain; also called Exemplary Antibody 5; anti-αVβ1; source: Expi293F, recombinantly expressed as IgG1; Fab generated with papain, purified (Hi-Trap Q)

Legend:
[1] = molecular target: T1, integrin α5β1 ectodomain (soluble) (human, UniProt P08648 42-995; P05556 21-728); assay: fluorescence polarisation; competition with 10 nM FITC-cyclic-… binding to soluble integrin ectodomains in solution (50 nM α5β1, 200 nM αVβ1, 20 nM αVβ3, 20 nM αVβ5); global three-parameter dose-response fit; conditions: both partners purified
T1 construct: human integrin α5 ectodomain; N-terminal secretion peptide and HRV3C digestion site in the construct; human integrin β1 ectodomain; source: Expi293F, transiently transfected, purified from culture supernatant (Ni-NTA, size-exclusion chromatography)

[2] = molecular target: T2, integrin α5β1, intact, on wild type K562 cells (human (endogenous in K562), UniProt P08648 42-1049; P05556 21-798); assay: flow cytometry on cells; intact integrins on K562 cells in L15 medium with 1% BSA and 1 mM Mn2+, no washing; titrator's binding read as enhancement of binding of AF647-9EG7 Fab (10 nM); EC50 of a three-parameter dose-response fit taken as Kd; conditions: one partner purified
T2 construct: integrin α5 subunit, natively expressed on K562 cells; integrin β1 subunit, natively expressed on K562 cells; also called K562 WT (α5β1); K562 WT; source: endogenous, on wild type K562 cells

[3] = molecular target: T2, integrin α5β1, intact, on wild type …; assay: flow cytometry on cells; intact integrins on K562 cells in L15 medium with 1% BSA, without Mn2+, no washing; titrator's binding read as enhancement of binding of fluorescent 9EG7 Fab (10 nM); EC50 of a three-parameter dose-response fit taken as Kd; conditions: one partner purified
[4] = molecular target: T3, integrin α5β1, intact, on wild type K562 cells (human (endogenous in K562), UniProt P08648;P05556); assay: flow cytometry on cells; intact integrins on K562 cells in L15 medium with 1% BSA and 1 mM Mn2+, no washing; titrator's binding read as enhancement of binding of AF647-9EG7 Fab (10 nM); EC50 of a three-parameter dose-response fit taken as Kd; conditions: one partner purified
T3 construct: integrin α5 subunit, natively expressed on K562 cells; integrin β1 subunit, natively expressed on K562 cells; also called K562 WT (α5β1); K562 WT; source: endogenous, on wild type K562 cells

[5] = molecular target: T4, integrin αVβ1, intact, on K562 αVβ1 stable transfectants (human, UniProt P06756;P05556); assay: as above; conditions: one partner purified
T4 construct: integrin αV subunit; integrin β1 subunit; the cells also express native α5β1, whose share the legend calls negligible

[6] = molecular target: T5, integrin αVβ3 ectodomain (soluble) (human, UniProt P06756;P05106); assay: fluorescence polarisation; competition with 10 nM FITC-cyclic-… binding to soluble integrin ectodomains in solution (50 nM α5β1, 200 nM αVβ1, 20 nM αVβ3, 20 nM αVβ5); global three-parameter dose-response fit; conditions: both partners purified
T5 construct: human integrin αV ectodomain; N-terminal secretion peptide and HRV3C digestion site in the construct; human integrin β3 ectodomain; source: Expi293F, transiently transfected, purified from culture supernatant (Ni-NTA, size-exclusion chromatography)

[7] = molecular target: T6, integrin α5β1 ectodomain (soluble) (human, UniProt P08648;P05556); assay: as above; conditions: both partners purified
T6 construct: human integrin α5 ectodomain; N-terminal secretion peptide and HRV3C digestion site in the construct; human integrin β1 ectodomain; source: Expi293F, transiently transfected, purified from culture supernatant (Ni-NTA, size-exclusion chromatography)

[8] = molecular target: T3, integrin α5β1, intact, on wild type …; assay: flow cytometry on cells; intact integrins on K562 cells in L15 medium with 1% BSA, without Mn2+, no washing; titrator's binding read as enhancement of binding of fluorescent 9EG7 Fab (10 nM); EC50 of a three-parameter dose-response fit taken as Kd; conditions: one partner purified
[9] = molecular target: T4, integrin αVβ1, intact, on K562 αVβ1 …; assay: as above; conditions: one partner purified

T2 sequence (P08648 42-1049, chain 1 of 2): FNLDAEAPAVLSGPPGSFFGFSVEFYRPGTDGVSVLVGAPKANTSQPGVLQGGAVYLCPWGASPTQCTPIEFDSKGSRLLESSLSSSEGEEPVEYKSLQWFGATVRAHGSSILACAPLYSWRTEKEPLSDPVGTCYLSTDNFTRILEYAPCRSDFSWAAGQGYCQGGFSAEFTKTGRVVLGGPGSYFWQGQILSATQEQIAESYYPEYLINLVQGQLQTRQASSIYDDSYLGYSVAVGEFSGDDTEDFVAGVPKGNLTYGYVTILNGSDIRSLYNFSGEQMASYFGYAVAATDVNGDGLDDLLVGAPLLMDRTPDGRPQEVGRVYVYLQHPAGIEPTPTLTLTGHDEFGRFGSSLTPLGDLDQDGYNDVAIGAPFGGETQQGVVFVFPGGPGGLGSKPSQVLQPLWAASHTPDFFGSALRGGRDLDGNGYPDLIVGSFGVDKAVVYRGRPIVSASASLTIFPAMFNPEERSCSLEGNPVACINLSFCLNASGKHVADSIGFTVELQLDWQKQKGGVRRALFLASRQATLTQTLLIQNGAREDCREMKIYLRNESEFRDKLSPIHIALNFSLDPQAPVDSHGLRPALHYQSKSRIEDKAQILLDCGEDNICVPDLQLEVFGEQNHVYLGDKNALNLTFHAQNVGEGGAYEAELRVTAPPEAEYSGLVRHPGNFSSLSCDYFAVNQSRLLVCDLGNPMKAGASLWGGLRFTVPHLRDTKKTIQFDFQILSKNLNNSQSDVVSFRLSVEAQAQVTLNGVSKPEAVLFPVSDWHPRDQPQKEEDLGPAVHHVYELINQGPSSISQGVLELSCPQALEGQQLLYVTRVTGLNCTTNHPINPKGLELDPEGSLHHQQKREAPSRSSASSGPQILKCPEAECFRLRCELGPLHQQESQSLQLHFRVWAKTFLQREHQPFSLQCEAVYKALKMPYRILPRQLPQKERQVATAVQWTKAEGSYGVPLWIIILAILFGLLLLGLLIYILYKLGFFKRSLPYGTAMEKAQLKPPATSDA
T2 sequence (P05556 21-798, chain 2 of 2): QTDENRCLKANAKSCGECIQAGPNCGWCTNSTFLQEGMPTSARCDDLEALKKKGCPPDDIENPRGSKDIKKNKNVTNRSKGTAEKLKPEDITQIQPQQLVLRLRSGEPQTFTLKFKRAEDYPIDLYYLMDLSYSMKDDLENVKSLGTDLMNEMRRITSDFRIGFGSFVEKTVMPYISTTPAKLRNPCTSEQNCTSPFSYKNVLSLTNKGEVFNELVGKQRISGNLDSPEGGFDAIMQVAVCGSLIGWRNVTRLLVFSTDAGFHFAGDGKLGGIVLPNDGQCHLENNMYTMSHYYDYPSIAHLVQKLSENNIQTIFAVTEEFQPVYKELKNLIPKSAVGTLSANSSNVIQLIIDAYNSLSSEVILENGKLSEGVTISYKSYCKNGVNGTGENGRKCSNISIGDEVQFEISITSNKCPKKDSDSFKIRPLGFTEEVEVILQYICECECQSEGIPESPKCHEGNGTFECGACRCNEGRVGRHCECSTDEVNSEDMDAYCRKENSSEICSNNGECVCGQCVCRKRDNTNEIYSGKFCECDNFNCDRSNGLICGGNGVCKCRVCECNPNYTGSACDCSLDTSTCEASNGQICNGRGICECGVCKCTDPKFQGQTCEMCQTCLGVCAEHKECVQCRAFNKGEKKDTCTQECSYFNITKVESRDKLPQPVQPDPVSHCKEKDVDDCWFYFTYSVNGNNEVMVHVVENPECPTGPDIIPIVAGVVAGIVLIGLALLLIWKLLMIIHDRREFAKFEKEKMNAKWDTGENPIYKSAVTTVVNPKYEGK
T3 sequence (P08648 42-1049, chain 1 of 2): as the sequence (P08648 42-1049, chain 1 of 2) above
T3 sequence (P05556 21-798, chain 2 of 2): as the sequence (P05556 21-798, chain 2 of 2) above
T4 sequence (P06756 31-1048, chain 1 of 2): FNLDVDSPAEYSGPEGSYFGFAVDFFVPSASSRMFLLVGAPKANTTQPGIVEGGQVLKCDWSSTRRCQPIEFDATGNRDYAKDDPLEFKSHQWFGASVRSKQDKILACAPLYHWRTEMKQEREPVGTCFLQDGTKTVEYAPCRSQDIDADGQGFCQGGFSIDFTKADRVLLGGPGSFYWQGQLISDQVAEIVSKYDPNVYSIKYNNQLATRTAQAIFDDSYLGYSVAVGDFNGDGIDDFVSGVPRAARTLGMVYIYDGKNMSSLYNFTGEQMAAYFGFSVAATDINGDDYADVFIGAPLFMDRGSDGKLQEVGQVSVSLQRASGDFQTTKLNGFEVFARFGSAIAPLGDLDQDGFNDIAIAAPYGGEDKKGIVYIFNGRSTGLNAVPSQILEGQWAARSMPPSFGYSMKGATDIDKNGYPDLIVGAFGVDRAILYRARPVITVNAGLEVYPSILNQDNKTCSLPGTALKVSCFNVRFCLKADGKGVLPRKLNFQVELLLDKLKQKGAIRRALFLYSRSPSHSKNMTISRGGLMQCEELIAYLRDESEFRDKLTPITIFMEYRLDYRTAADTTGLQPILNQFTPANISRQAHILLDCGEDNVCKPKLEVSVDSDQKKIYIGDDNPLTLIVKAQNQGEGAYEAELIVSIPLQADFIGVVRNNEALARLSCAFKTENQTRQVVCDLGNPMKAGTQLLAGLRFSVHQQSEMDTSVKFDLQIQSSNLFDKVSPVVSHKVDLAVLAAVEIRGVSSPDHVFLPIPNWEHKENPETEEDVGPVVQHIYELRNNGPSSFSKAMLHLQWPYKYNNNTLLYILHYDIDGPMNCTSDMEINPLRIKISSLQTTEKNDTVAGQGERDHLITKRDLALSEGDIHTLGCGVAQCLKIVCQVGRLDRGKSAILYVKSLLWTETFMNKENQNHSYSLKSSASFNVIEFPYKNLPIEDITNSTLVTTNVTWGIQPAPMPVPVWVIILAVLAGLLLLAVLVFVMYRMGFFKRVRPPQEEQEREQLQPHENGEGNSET
T4 sequence (P05556 21-798, chain 2 of 2): as the sequence (P05556 21-798, chain 2 of 2) above
T5 sequence (P06756 31-992, chain 1 of 2): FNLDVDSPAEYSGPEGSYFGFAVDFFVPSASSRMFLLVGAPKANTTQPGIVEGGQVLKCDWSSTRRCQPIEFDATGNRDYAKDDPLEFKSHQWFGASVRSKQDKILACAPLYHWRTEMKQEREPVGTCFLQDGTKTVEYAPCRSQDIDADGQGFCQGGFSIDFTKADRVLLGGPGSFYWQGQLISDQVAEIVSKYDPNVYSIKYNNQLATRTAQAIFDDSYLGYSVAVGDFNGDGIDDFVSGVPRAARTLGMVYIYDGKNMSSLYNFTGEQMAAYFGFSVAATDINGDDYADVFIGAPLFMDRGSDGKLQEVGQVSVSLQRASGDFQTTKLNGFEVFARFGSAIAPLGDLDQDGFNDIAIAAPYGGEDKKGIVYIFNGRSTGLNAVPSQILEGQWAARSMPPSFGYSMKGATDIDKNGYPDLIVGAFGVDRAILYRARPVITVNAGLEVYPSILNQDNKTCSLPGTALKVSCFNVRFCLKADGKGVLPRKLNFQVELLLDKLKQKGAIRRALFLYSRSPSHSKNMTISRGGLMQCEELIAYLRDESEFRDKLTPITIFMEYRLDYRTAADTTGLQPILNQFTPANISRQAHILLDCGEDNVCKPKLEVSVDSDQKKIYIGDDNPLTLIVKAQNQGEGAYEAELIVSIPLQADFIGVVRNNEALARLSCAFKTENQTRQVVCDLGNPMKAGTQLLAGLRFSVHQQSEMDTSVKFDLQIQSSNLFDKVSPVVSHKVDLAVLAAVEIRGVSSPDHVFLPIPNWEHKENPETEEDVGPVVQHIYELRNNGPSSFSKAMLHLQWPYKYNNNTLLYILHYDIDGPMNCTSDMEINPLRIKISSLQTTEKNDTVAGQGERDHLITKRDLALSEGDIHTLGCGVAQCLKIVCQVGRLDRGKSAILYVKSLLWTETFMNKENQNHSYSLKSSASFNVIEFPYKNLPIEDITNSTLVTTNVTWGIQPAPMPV
T5 sequence (P05106 27-718, chain 2 of 2): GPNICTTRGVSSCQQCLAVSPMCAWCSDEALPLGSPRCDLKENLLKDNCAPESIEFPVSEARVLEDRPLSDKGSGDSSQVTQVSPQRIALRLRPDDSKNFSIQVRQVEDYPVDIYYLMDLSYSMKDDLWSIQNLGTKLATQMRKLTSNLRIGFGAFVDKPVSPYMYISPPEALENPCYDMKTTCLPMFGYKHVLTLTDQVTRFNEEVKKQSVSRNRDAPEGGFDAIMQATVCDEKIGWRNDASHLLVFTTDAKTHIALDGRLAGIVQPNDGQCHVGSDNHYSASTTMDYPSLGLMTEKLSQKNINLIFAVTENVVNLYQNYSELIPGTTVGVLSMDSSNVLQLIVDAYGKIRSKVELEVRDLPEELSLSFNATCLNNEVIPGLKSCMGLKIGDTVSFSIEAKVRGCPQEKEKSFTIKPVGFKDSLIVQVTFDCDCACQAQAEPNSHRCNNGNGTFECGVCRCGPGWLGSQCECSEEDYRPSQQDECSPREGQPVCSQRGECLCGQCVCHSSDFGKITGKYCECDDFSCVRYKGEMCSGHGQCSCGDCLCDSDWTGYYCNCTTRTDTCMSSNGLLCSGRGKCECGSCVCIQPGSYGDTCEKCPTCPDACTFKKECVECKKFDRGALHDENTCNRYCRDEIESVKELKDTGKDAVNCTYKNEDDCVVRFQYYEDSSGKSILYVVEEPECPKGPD

Row | Binder | IC50 [1] [µM] | Kd [2] [µM] | Kd [3] [µM] | Kd [4] [µM] | Kd [5] [µM] | IC50 [6] [µM] | IC50 [7] [µM] | Kd [8] [µM] | Kd [9] [µM]
1 | B1 | 1.2 ± 0.5 | 11 | 610 | – | – | – | – | – | –
2 | B2 | – | – | – | 4.3 | 0.0236 | 21 ± 3 | 0.2 ± 0.1 | 19 | 0.117
